From article PMC7397871

Molecular target: T1, ZC3H12B PIN + C3H1 crystallization construct (Homo sapiens, UniProt Q5HYM0 179-380)
T1 sequence: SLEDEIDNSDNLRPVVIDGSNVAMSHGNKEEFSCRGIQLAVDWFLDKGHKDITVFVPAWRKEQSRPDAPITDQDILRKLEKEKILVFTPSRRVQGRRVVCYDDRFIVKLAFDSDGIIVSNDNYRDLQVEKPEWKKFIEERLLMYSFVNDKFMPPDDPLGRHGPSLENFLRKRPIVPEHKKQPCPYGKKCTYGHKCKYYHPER
Assay: X-ray crystallography

AAUGCGACAGUCGGUAGCAUC (ssRNA, phosphorothioate between nt 1 and 2 (5' end)) [21-nt HTR-SELEX-enriched RNA]
binding result: binds
